In article PMC4658230 one finds Km and kcat data, which are given here for 2 proteins.

Test in all cases: cells, lysate or membranes named
Substrate in series [1]: C=Cc1ccccc1
The following applies: pH 7.4; 37.0 °C.

Substrate in series [2]: O=[N+]([O-])c1ccc(O)cc1
The note with it: 1 mM NADPH, 37°C, pH 7.4.

Substrate in series [3]: Nc1ccccc1
The following applies: 1 mM NADPH, 37°C, pH 7.4.

Setting [4] is: other: rat liver mitochondria 2 mg/mL.
The mark [5] stands for this setting: other: rat liver microsomes 0.5 mg/mL.

B1: mtCYP2E1 (Rattus norvegicus) (protein)
chain: AVLGITIALLVWVATLLVISIWKQIYNSWNLPPGPFPLPILGNIFQLDLKDIPKSFTKLAKRFGPVFTLHLGSRRIVVLHGYKAVKEVLLNHKNEFSGRGDIPVFQEYKNKGIIFNNGPTWKDVRRFSLSILRDWGMGKQGNEARIQREAQFLVEELKKTKGQPFDPTFLIGCAPCNVIADILFNKRFDYNDKKCLRLMSLFNENFYLLSTPWIQLYNNFADYLRYLPGSHRKIMKNVSEIKQYTLEKAKEHLQSLDINCARDVTDCLLIEMEKEKHSQEPMYTMENVSVTLADLFFAGTETTSTTLRYGLLILMKYPEIEEKLHEEIDRVIGPSRVPAVRDRLDMPYMDAVVHEIQRFINLVPSNLPHEATRDTVFQGYVIPKGTVVIPTLDSLLYDSHEFPDPEKFKPEHFLNENGKFKYSDYFKAFSAGKRVCVGEGLARMELFLLLSAILQHFNLKSLVDPKDIDLSPVTVGFGSIPPQFKLCVIPRS
Consider B1, for which the results for the Km in series [1], in series [2] (setting [4]) and in series [3] (setting [4]) were 45 (36 to 56) μM, 28 (24 to 33) μM and 10 (7.5 to 12) μM, respectively. The kcat was 110 (100 to 110) pmol/min/pmol CYP2E1 in series [2] (setting [4]) and 52 (49 to 54) pmol/min/pmol CYP2E1 in series [3] (setting [4]).

B2: erCYP2E1 (Rattus norvegicus) (protein)
chain: MAVLGITIALLVWVATLLVISIWKQIYNSWNLPPGPFPLPILGNIFQLDLKDIPKSFTKLAKRFGPVFTLHLGSRRIVVLHGYKAVKEVLLNHKNEFSGRGDIPVFQEYKNKGIIFNNGPTWKDVRRFSLSILRDWGMGKQGNEARIQREAQFLVEELKKTKGQPFDPTFLIGCAPCNVIADILFNKRFDYNDKKCLRLMSLFNENFYLLSTPWIQLYNNFADYLRYLPGSHRKIMKNVSEIKQYTLEKAKEHLQSLDINCARDVTDCLLIEMEKEKHSQEPMYTMENVSVTLADLFFAGTETTSTTLRYGLLILMKYPEIEEKLHEEIDRVIGPSRVPAVRDRLDMPYMDAVVHEIQRFINLVPSNLPHEATRDTVFQGYVIPKGTVVIPTLDSLLYDSHEFPDPEKFKPEHFLNENGKFKYSDYFKAFSAGKRVCVGEGLARMELFLLLSAILQHFNLKSLVDPKDIDLSPVTVGFGSIPPQFKLCVIPRS
On to B2, for which the Km in series [1] is given as 100 (31 to 2600) μM; in series [2] (setting [5]) it was 28 (24 to 34) μM; in series [3] (setting [5]) it was 2.1 (0.010 to 5.2) μM. In addition, the kcat in series [2] (setting [5]) was 940 (880 to 1000) pmol/min/pmol CYP2E1.
